Residue numbers refer to the chain shown, from its start. *1 amine or outer side, *2 acyl side, *3 side chain or, on linkers, in order; H or OH if unused. Bridges are numbered along the chain shown (N, C = ends). Where no end group is shown, it is not given here. Side-chain parts run from the residue outwards. [ ]: non-standard residue; d: D form. The star is where a group is joined. γGlu = O=C(O)[C@H](CCC(=O)[*:2])N[*:1]; Stearoyl = CCCCCCCCCCCCCCCCCC(=O)*; AEEA = NCCOCCOCC(=O)O; Aib = CC(C)(N)C(=O)O

The chains are these.
B1: Compound 7 (peptide)
peptide: HXQGTFTSDXSKYLDXRRAQDFVQWLMNTKRNRNNIA
modifications: Aib at positions 2 and 16; Z at position 10 = Lys([(2-(2-(2-aminoethoxy)ethoxy)acetoyl)2]-[gamma glutamicacid]-[octadecanoyl])
B2: Compound 10 (peptide)
peptide: HXQGTFTSDXSKYLDXRRAQDFVQWLMNTK
modifications: Aib at positions 2 and 16; Z at position 10 = Lys([(2-(2-(2-aminoethoxy)ethoxy)acetoyl)3]-[gamma glutamicacid]-[octadecanoyl])
B3: Compound 47 (peptide)
peptide: H-H[Aib]QGTFTSDYSKYLDEKRAKEFVQWLMNTKC-OH
modifications: lactam 16-20
SMILES: CSCC[C@H](NC(=O)[C@H](CC(C)C)NC(=O)[C@H](Cc1c[nH]c2ccccc12)NC(=O)[C@H](CCC(N)=O)NC(=O)[C@@H](NC(=O)[C@H](Cc1ccccc1)NC(=O)[C@H](CCC(=O)O)NC(=O)[C@@H]1CCCCNC(=O)CC[C@H](NC(=O)[C@H](CC(=O)O)NC(=O)[C@H](CC(C)C)NC(=O)[C@H](Cc2ccc(O)cc2)NC(=O)[C@H](CCCCN)NC(=O)[C@H](CO)NC(=O)[C@H](Cc2ccc(O)cc2)NC(=O)[C@H](CC(=O)O)NC(=O)[C@H](CO)NC(=O)[C@@H](NC(=O)[C@H](Cc2ccccc2)NC(=O)[C@@H](NC(=O)CNC(=O)[C@H](CCC(N)=O)NC(=O)C(C)(C)NC(=O)[C@@H](N)Cc2c[nH]cn2)[C@@H](C)O)[C@@H](C)O)C(=O)N[C@@H](CCCCN)C(=O)N[C@@H](CCCNC(=N)N)C(=O)N[C@@H](C)C(=O)N1)C(C)C)C(=O)N[C@@H](CC(N)=O)C(=O)N[C@H](C(=O)N[C@@H](CCCCN)C(=O)N[C@@H](CS)C(=O)O)[C@@H](C)O
B4: Compound 14 (peptide)
peptide: B2 peptide with X16E, Q20K
modifications: Aib at position 2; Z at position 10 = Lys([(2-(2-(2-aminoethoxy)ethoxy)acetoyl)2]-[gamma glutamicacid]-[octadecanoyl]); lactam ring formed between E and K (positions 16 and 20)
B5: Compound 6 (peptide)
peptide: B2 peptide
modifications: Aib at positions 2 and 16; Z at position 10 = Lys([(2-(2-(2-aminoethoxy)ethoxy)acetoyl)2]-[gamma glutamicacid]-[octadecanoyl]); C-terminal amide (-NH2)
B6: Compound 4 (peptide)
peptide: B2 peptide with X2S, X16S
modifications: Z at position 10 = Lys([(2-(2-(2-aminoethoxy)ethoxy)acetoyl)2]-[gamma glutamicacid]-[octadecanoyl]); C-terminal amide (-NH2)
B7: Compound 11 (peptide)
peptide: B2 peptide
modifications: Aib at positions 2 and 16; Z at position 10 = Lys([Gly-Gly-Ser-Gly-Ser-Gly]-[gamma glutamic acid]-[octadecanoyl])
B8: Compound 43 (peptide)
peptide: B2 peptide
modifications: Aib at positions 2 and 16; Z at position 10 = Lys([(2-(2-(2-aminoethoxy)ethoxy)acetoyl)2]-[gammaglutamicacid]-[17-carboxyheptadecanoyl])
B9: Compound 42 (peptide)
peptide: B2 peptide
modifications: not fully specified; Aib at positions 2 and 16; Z at position 10 = Lys([(2-(2-(2-aminoethoxy)ethoxy)acetoyl)2]-[gammaglutamicacid]-[15-carboxypeptadecanoyl]) (so in the source)
B10: Compound 44 (peptide)
peptide: B2 peptide
modifications: not fully specified; Aib at positions 2 and 16; Z at position 10 = Lys([(2-(2-(2-aminoethoxy)ethoxy)acetoyl)2]-[gammaglutamicacid]-[19-carboxypeptadecanoyl]) (so in the source)

The first assay has as its target Human GLP-1 receptor (human, UniProt P43220). Briefly: cell-based or functional assay.
Turning to B1, the “EC50(pM), CRE-driven luciferase activity” value was under 10 pM.

Take B2: the “EC50(pM), CRE-driven luciferase activity” value is under 10 pM.

Turning to H[Aib]QGTFTSDKSKYLD[Aib]RRAQDFVQWLMNTK [Compound 39], the “EC50(pM), CRE-driven luciferase activity” value was over 1000 pM.

As to B3, the “EC50(pM), CRE-driven luciferase activity” value was under 10 pM.

In the case of B4, the “EC50(pM), CRE-driven luciferase activity” value is under 10 pM.

Regarding B5, the “EC50(pM), CRE-driven luciferase activity” value is under 10 pM.

Consider B6, for which the “EC50(pM), CRE-driven luciferase activity” value was under 10 pM.

For the molecule B7, the “EC50(pM), CRE-driven luciferase activity” value is under 10 pM.

On to B8, for which the “EC50(pM), CRE-driven luciferase activity” value is over 1000 pM.

On to H[Aib]QGTFTSDK([AEEA-AEEA-γGlu-Stearoyl])SKYLD[Aib]RRAQDFVQWLLRAK [Compound 12], for which the “EC50(pM), CRE-driven luciferase activity” value was under 10 pM.

Another assay addresses Human glucagon receptor (human, UniProt P47871). Briefly: cell-based or functional assay.
As for B1, the “EC50(pM), CRE-driven luciferase activity” value is under 10 pM.

For B9, the “EC50(pM), CRE-driven luciferase activity” value is over 1000 pM.

Consider B2, for which the “EC50(pM), CRE-driven luciferase activity” value is under 10 pM.

Consider H[Aib]QGTFTSDKSKYLD[Aib]RRAQDFVQWLMNTK [Compound 39], for which the “EC50(pM), CRE-driven luciferase activity” value is over 1000 pM.

Regarding H[Aib]QGTFTSK([AEEA-AEEA-γGlu-Stearoyl])YSKYLD[Aib]RRAQDFVQWLMNTK [Compound 40], the “EC50(pM), CRE-driven luciferase activity” value is over 1000 pM.

In the case of B4, the “EC50(pM), CRE-driven luciferase activity” value was under 10 pM.

On to B10, for which the “EC50(pM), CRE-driven luciferase activity” value was over 1000 pM.

Turning to B5, the “EC50(pM), CRE-driven luciferase activity” value is under 10 pM.

For the molecule B8, the “EC50(pM), CRE-driven luciferase activity” value is over 1000 pM.

For H[Aib]QGTFTSDK([AEEA-AEEA-γGlu-Stearoyl])SKYLD[Aib]RRAQDFVQWLLRAK [Compound 12], the “EC50(pM), CRE-driven luciferase activity” value is under 10 pM.
